Laboratory results: paper doi:10.1101/2025.05.23.649291 (bioRxiv, 2025)
Like-named read-outs stand apart in the source and are kept apart here. Blank lines part the entries; values can stand above or below the binder they belong to.

Tests used:
[1] = molecular target: mFc-mouse TfR1 ectodomain (mouse IgG2a Fc fusion) (Mus musculus, UniProt Q62351); experiment: SPR
[2] = molecular target: T1, rhesus monkey TfR1 fused to EGFP, on CHO-rhTfR1-EGFP cells (Macaca mulatta, UniProt H9Z2T8); experiment: flow cytometry on cells
[3] = molecular target: T2, human TfR1 fused to EGFP, on CHO-hTfR1-EGFP cells (human, UniProt P02786); experiment: flow cytometry on cells
[4] = molecular target: mFc-rhesus monkey TfR1 ectodomain (mouse IgG2a Fc fusion) (Macaca mulatta, UniProt H9Z2T8); experiment: SPR
[5] = molecular target: mFc-human TfR1 ectodomain (mouse IgG2a Fc fusion) (Homo sapiens, UniProt P02786); experiment: SPR
[6] = molecular target: mouse NTSR1 fused to GFP, on Expi293 cells (mouse, UniProt O88319); experiment: flow cytometry on cells
[7] = molecular target: T3, mouse TfR1 fused to EGFP, on CHO-mTfR1-EGFP cells (Mus musculus, UniProt Q62351); experiment: immunostaining of cells or tissue
[8] = molecular target: T1, rhesus monkey TfR1 fused to EGFP, on …; experiment: immunostaining of cells or tissue
[9] = molecular target: T1, rhesus monkey TfR1 fused to EGFP, on …; experiment: immunostaining of cells or tissue; remark: listed apart in the source
[10] = molecular target: T3, mouse TfR1 fused to EGFP, on …; experiment: immunostaining of cells or tissue; remark: listed apart in the source
[11] = molecular target: T2, human TfR1 fused to EGFP, on …; experiment: immunostaining of cells or tissue

Sequence of mouse NTSR1 fused to GFP, on Expi293 cells (O88319 whole entry, the tested form may be a part): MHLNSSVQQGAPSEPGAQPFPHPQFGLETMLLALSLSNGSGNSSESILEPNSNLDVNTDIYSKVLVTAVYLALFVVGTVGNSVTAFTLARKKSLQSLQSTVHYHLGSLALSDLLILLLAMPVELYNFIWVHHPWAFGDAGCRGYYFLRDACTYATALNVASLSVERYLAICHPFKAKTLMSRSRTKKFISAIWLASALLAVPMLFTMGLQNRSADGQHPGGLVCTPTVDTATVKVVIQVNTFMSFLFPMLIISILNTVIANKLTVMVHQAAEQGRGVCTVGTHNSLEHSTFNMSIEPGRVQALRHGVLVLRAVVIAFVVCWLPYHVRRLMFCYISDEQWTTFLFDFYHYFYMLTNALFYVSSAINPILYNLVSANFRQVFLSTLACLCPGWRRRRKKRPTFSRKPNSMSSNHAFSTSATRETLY
T3 sequence (Q62351 whole entry, the tested form may be a part): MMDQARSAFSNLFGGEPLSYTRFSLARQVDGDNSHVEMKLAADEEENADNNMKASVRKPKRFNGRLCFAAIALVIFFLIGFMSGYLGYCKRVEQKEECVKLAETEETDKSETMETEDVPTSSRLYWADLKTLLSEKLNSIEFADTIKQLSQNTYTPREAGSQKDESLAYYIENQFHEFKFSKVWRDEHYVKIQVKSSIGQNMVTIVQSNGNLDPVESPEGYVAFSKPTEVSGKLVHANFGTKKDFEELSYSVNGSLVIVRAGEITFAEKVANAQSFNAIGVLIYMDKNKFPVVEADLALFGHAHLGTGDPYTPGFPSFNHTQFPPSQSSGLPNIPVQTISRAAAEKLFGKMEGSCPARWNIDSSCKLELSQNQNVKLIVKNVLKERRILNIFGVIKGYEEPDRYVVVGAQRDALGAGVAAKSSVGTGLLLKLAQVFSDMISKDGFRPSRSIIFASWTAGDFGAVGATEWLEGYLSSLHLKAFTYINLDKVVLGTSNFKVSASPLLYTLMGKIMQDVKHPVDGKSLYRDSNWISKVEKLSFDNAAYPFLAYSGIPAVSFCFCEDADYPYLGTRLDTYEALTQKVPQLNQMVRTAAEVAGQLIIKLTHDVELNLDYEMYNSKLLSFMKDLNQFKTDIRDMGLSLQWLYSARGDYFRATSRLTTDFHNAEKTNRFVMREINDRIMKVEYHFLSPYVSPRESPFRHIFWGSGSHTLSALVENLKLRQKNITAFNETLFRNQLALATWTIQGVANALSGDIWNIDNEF
Sequence of mFc-mouse TfR1 ectodomain (mouse IgG2a Fc fusion) (Q62351 89-763): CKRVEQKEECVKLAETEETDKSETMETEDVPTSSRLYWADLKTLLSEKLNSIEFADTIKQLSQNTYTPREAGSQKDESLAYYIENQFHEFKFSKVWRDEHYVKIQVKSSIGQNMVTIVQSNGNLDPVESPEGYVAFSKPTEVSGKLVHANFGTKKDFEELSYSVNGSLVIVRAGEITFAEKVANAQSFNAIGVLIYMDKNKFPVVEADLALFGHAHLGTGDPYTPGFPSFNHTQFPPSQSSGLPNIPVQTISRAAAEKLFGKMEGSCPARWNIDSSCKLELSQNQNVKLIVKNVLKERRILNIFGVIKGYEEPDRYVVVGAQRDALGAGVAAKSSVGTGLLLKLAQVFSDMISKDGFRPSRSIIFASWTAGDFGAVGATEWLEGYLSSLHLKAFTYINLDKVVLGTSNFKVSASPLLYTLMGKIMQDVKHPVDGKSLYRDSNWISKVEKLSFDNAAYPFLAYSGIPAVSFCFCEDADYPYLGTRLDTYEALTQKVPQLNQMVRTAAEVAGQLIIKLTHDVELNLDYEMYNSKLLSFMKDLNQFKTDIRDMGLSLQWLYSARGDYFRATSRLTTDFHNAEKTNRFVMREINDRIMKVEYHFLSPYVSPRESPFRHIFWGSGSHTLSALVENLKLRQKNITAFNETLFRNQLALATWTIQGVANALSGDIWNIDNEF

Kd [1]: ~30 nM
binding result [2]: binds
Kd [3]: 2.4 nM
B1: VHH B8 (VHH)
chain: EVQLVESGGGVVQPGGSLRLSCAASGEIFSINFMRWYRQAPGKQREWVAGFTRDGSTNYPDSAKGRFTISRDNAKNTVYLQIDSLKPEDTAVYYCYMLDTWGQGTQVTVSS

binding result [4]: binds
binding result [5]: binds
B2: B8V31 (VHH)
chain: EVQLVESGGGVVQPGGSLRLSCAASGEIKSINFMRWYRQAPGKQREWVAGFTRDGSTNYPDSAKGRFTISRDNAKNTVYLQIDSLKPEDTAVYYCYMLDTWGQGTQVTVSS

binding result [6]: binds
B3: B8-NT(8-13) (VHH)
VHH: EVQLVESGGGVVQPGGSLRLSCAASGEIFSINFMRWYRQAPGKQREWVAGFTRDGSTNYPDSAKGRFTISRDNAKNTVYLQIDSLKPEDTAVYYCYMLDTWGQGTQVTVSS

binding result [5]: binds
B4: B8V37 (VHH)
VHH: EVQLVESGGGVVQPGGSLRLSCAASGEIFSINFMRWYRQAPGKQREWVAGFTRDGSTNYPDSAKGRFTISEDNAKNTVYLQIDSLKPEDTAVYYCYMLRTWGQGTQVTVSS

Kd [5]: 16.9 nM
B5: B8V34-NT(8-13) (VHH)
VHH: EVQLVESGGGVVQPGGSLRLSCAASGEIRSINFMRWYRQAPGKQREWVAGFTRDGSTNYPDIAKGRFTISRDNAKNTVYLQIDSLKPEDTAVYYCYMLDTWGQGTQVTVSS

binding result [4]: binds
binding result [5]: binds
B6: B8V40 (VHH)
chain: EVQLVESGGGVVQPGGSLRLSCAASGEIKSINFMRWYRQAPGKQREWVSGFTRDGSTNYPDSAKGRFTISRDNAKNTVYLQIDSLKPEDTAVYYCYMLDTWGQGTQVTVSS

binding result [7]: no binding (tested: 50 µg/ml)
binding result [8]: no binding (tested: 50 µg/ml)
Kd [3]: 2.7 nM
B7: VHH B6 (VHH)
VHH: EVQLVESGGGLVQPGGSLRLSCTASGGPIEQYPMGWFRRAPGKERELVASISRSGDGTYYAISSVKGRFTISRDNAENTVFLQMNSLKPDDTAVYYCGAGINPTKIWGQGTQVTVSS

Kd [1]: ~110 nM
binding result [9]: binds
Kd [3]: 3.1 nM
B8: VHH C5 (VHH)
chain: EVQLVESGGGVVQPGGSLKLSCVASGTDFSINFIRWYRQAPGKQREFVAGFTATGNTNYADSMKGRFTISRDNTKNAVYLQIDSLKPEDTAVYYCYMLDKWGQGTQVTVSS

Kd [5]: 0.1 nM
koff [5]: 0.00016 s⁻¹
kon [5]: 1.36e+06 M⁻¹ s⁻¹
B9: C5-NT(8-13) (VHH)
VHH: EVQLVESGGGVVQPGGSLKLSCVASGTDFSINFIRWYRQAPGKQREFVAGFTATGNTNYADSMKGRFTISRDNTKNAVYLQIDSLKPEDTAVYYCYMLDKWGQGTQVTVSS

binding result [5]: binds
B10: C5V30 (VHH)
VHH: EVQLVESGGGVVQPGGSLKLSCVASGTDKSINFIRWYRQAPGKQREFVAGFTATGNTNYADSMKGRFTISRDNTKNAVYLQIDSLKPEDTAVYYCYMLDKWGQGTQVTVSS

binding result [6]: binds
B11: C5neg-NT(8-13) (VHH)
VHH: EVQLVESGGGVVQPGGSLKLSCVASGTDFSINFIRWYRQAPGKQREFVAGFTATGNTNYADSMKGRFTISRDNTKNAVYLQIDSLKPEDTAVYYCAMADKWGQGTQVTVSS

binding result [10]: binds
binding result [11]: binds
binding result [2]: binds
B12: VHH H3 (VHH)
VHH: EVQLVESGGGEVQPGGSLKLSCVASGTDFSINFVRWYRQRPGKQREWVAGFTANGDTNYPDSMKGRFTISRDNAKNTVYLQINSLKSEDTAVYYCYMLDNWGQGTQVTVSS
